Measurements: article PMC9404787, “The Peptide Methionine Sulfoxide Reductase (MsrAB) of Haemophilus influenzae Repairs Oxidatively Damaged Outer Membrane and Periplasmic Proteins Involved in Nutrient Acquisition and Virulence” (Antioxidants, 2022)

Key:
Assay in all cases: purified protein
Cc1ccc([S@+](C)[O-])cc1 = conditions: 20 uM rTrx, 5 uM rTrxR, 0.2 mM NADPH, 50 mM sodium phosphate pH 7.5, 37 °C, MsrA domain
Cc1ccc([S@@+](C)[O-])cc1 = conditions: 20 uM rTrx, 5 uM rTrxR, 0.2 mM NADPH, 50 mM sodium phosphate pH 7.5, 37 °C, MsrB domain
Cc1ccc([S+](C)[O-])cc1 = conditions: 20 uM rTrx, 5 uM rTrxR, 0.2 mM NADPH, 50 mM sodium phosphate pH 7.5, 37 °C, racemate, both domains

With rMsrAB (Haemophilus influenzae Rd KW20) the Km (Cc1ccc([S@+](C)[O-])cc1) was 3620 ± 550 µM, the Vmax (Cc1ccc([S@+](C)[O-])cc1) was 0.52 µmol/min/mg and the kcat (Cc1ccc([S@+](C)[O-])cc1) was 0.312 ± 0.12 s⁻¹. The kcat/Km (Cc1ccc([S@+](C)[O-])cc1) was 86.1 M⁻¹ s⁻¹, the Km (Cc1ccc([S@@+](C)[O-])cc1) was 2310 ± 350 µM and the Vmax (Cc1ccc([S@@+](C)[O-])cc1) was 0.26 µmol/min/mg. For the same substance, the kcat (Cc1ccc([S@@+](C)[O-])cc1) was 0.156 ± 0.06 s⁻¹, the kcat/Km (Cc1ccc([S@@+](C)[O-])cc1) was 67.5 M⁻¹ s⁻¹ and the Km (Cc1ccc([S+](C)[O-])cc1) was 2960 ± 440 µM. The Vmax (Cc1ccc([S+](C)[O-])cc1) was 0.34 µmol/min/mg, the kcat (Cc1ccc([S+](C)[O-])cc1) was 0.204 ± 0.06 s⁻¹ and the kcat/Km (Cc1ccc([S+](C)[O-])cc1) was 68.9 M⁻¹ s⁻¹.
